In the DeepSol protein solubility set:

assay: soluble on expression in E. coli; label from the status in PepcDB or PDB records

| Sequence | soluble on expression in E. coli |
| --- | --- |
| MGSDKIHHHHHHMHSLQRKVLRTICPDQKGLIARITNICYKHELNIVQNNEFVDHRTGRFFMRTELEGIFNDSTLLADLDSALPEGSVRELNPAGRRRIVILVTKEAHCLGDLLMKANYGGLDVEIAAVIGNHDTLRSLVERFDIPFELVSHEGLTRNEHDQKMADAIDAYQPDYVVLAKYMRVLTPEFVARFPNKIINIHHSFLPAFIGARPYHQAYERGVKIIGATAHYVNDNLDEGPIIMQDVIHVDHTYTAEDMMRAGRDVEKNVLSRALYKVLAQRVFVYGNRTIIL | not soluble |
| MGSDKIHHHHHHMHTGPTVFKQLLQFLPRYEFNLCVRRHRGEYREKKFSTYDQFLCLAYAQMAGRESLRDIETCLNSHQEKLYHIGFRGDVSRTTLADANERRDWRIFQDFGHVLIGIAQQLYQADAISVELTQPLYAFDSTTIDLCLTLFPWAEFRKTKAAVKMHTLIDLRGPIPTWVTITTGKVHDVRMLDHLPVAKDAIYTMDRGYVDFARLHSIHKQGAFFVVRAKDNLKCQRLYSHPKDKESGVRADQIITLVTQKSKKGYPEKLRRVSYVDKERNKRLVFLTNNFEIPAATVAAIYKQRWQVELFFKWIKQHLRIKSFIGTSVNAVKSQIWVALCIYLLVAITKKKLGVPCSLYTFLQILEVNLFEKKPISSLVAEALKRNADYPERNQLNLFNY | not soluble |
| MGSDKIHHHHHHMIDARVKFRHLQTFVEVARQKSVVKAAELLHVTQPAVTKTIRELEEVLGVAVFEREGRGIKITRYGEVFLRHAGAALTALRQGLDSVSQERSGEGPPIRVGALPTVSTRIMPRAIALFLKEKTGARIKIVTGENAVLLEQLRIGDLDLVVGRLAAPDKMTGFSFEHLYSEQVVFAVRAGHPLISGRQSLFAHLSDYPVLMPTRASIIRPFVEHFLIANGIAGLPNQIETVSDSFGRAFVRSSDAIWIISAGVVATDIADGVLAALPVDTSETRGPVGLTMRTDAIPSLPLSILMQTLREVAGTAMAAEAKRTA | not soluble |
| MGSDKIHHHHHHMIDLQEILANMNPNQKINYDRVMQQMAKVWEKESVRPSILMHVCCAPCSTYTLEYLTQFADITVYFANSNIHPKDEYHRRAYVTQQFVSEFNAKTGNTVQFLEADYVPNEYVRQVRGLEEEPEGGDRCRVCFDYRLDKTAQKAVELGFDYFASALTISPHKNSQTINDVGIDVQKVYTTKYLPSDFKKNNGYRRSVEMCEEYDIYRQCYCGCVYAAKMQGIDLVQVKKDAKAFMADKDLDNDFTHIRFSYRGDEM | not soluble |
| MGSDKIHHHHHHMIDPESLEALEAVVDAGSLSAAAGQLNKAVSAVGYHLRRLEEQIGVPLLDRSGYRLALTPEGKSVLAEGRPILERLRALGTFAERYHGGWEHQLRIVYDGALPAEVVIGAINALVEAGAPTHIELNVAYLGAVPFEFDRKQADVMIATAWEPRLDLIGHRLATLGFSLCCAAGHPLTMRTNVSLEELQRETELIIPGLAEDRSFDARHFRSRRILKVSDFNTKLIAIRRGLGFGWLPDYLASDLVRKGNLARVRLEGGNSYELQPVFALHRGAAPGRARQMLLDMLLLATWDTYVKPE | not soluble |
| MGSDKIHHHHHHMIEMTRMAACAAVHHDTQATQTGAAYAPAEQGGEPRESSASAYFWVGIDAGGSHCRALLTDDSGQVLGHGVAGPANPVNGVSQSQAAIMSAIDKALGAARLDKQYHRLIVGAGLAGLHLPKMQQVMNEWAHPFAAWHTTTDLHVAALGAHQGADGGVIILGTGFSSLANVKGQQILIGGHGFPINATCSGSWFGLEAVKAVLLDADGIGPGTSLTGKLLQGTNAMALAEQLMHANATDFARFAPQVFEQAGAGDAVSLSLIEQGATFINGVIRRLLATGIDSLSLVGGIAPLMQPWLAPDLSTRIRTAKASPEEGAILFARQCHVGNSRIQER | not soluble |
| MGSDKIHHHHHHMIFLIFSILFLHLANCDYTPDWESLDNRPLPSWYDDSKFGIFCHWGLYSDDNDKNKKYKTRSEWMWWYWKGTQPDKDVVNFVDKNYKPGTTYADFAKDVCNILLFAIESDFCSLPQSISMRINLLKLYFVFTSKHHEGFTMWPSRTSWNWNSMDIGPKRDIVGELRDAFKKTDVHFGLYFSQFEWFHPMFLDDGKFNTTFYPEQVSYPQMIDIVTKYNPEVVWSDGEWDKSDDYWKAKEFLAWLYNSSPVKDQVVVNDRWGTGTMGKHGGFMTYSDHYDPGKLLEKKWENCMTLDKHSWGNRRDMKASEVNTAYEIIEQLARTIACNGNLLLNVGPNMHGQIPAIFEDRLEEIGRFVNITSEAIFGTRPWIHQNDTSASNVWYVEFQQLSTHVFSGILPNIHRERSH | not soluble |
| MGSDKIHHHHHHMIGFDYGTSNCGVATMRNGQPHIIPLLGNESYIASNLYAPSRDVIANWLSQQLDSPQQANFIAERKAQLQKGQAALRELKFDGISSELLFGKSALAQYLEDPEEGYYIKSPKSFLGASGLATAQIQFFEDIVACMMSNVKNLTEQALQKEVTQTVIGRPINFQGLHGEESNRQAISVLTNAAKRVGFKDVEFQYEPVAAGFEFESSLTKETRVLVVDIGGGTSDCSMLLMSPDFTDNDNRNDHLLAHTGVRVAGNDFDIQLALQGIMPSFGMNSLLKTGKPMPTSSFYQALAINNINEQTEFYSAKNRRNLVQLSRDAKETAIIERLVAVHDHKLSYQLVNAAEQAKIALTEQSKQTIDLSDVTDGLCAEVTKETLRSANKRTLESIANIMQSAVQQAQCQPDVIFVTGGTAKSPVLSEFLQQQMPNVPIVVGDHFGSVTSGLARWAEKIYQ | not soluble |
| MGSDKIHHHHHHMIHVGTCGFCEKQDKYFQDFSTVEIQQTFYKILQESTLKKWREKAPEGFVFSIKAFQGVTHPPNSPTWRRSNVKPSKNVGLLRPTNEVIHYWKITLNEAKILNARFILIQLPRSFKESEESFSNAERFFSIIDRGEFEIAVELRGWSERGIKKFVREFDVIDVVDPMVRVPLHGGGVNYYRLHGKYENGRIIYSYKYSDEELLKIRERVLSFHVEESYVYFNNSNMCEDAQRFKQLIMKF | not soluble |
| MGSDKIHHHHHHMIIDTHIHAYPTSDDSKMTLEEIVAQARIIGLDGICITDHDSNEIMARAHEYRKQMGYPIFVGAEVFTWEGDVIVFGLERLPEERVSARYLLDLVNKANGVAISAHPFRQNNRGMGNSIREHKDLHGVEAFNGSTDHANNMKACDLAMELGIPVFGASDAHNTEALGKFATVFPNGLKDEKDLIEAIKMGKVYPVAYNHSADAKWTVIPPIG | not soluble |
| MGSDKIHHHHHHMIIFFQLSSPYLLDIYHLDILYGMSFIKAIIKKMSGGVLLKIIDTVPFFLKYYESSLAFLKHYYSQYPKIFNEYFAYHCKDTEERHDQSLAKYPESLLAIQQVRRAIIPIIEEVVEEYGRLYQVTFPTEVNLIVGGYGSNAYTHRQIIPDVTFALERLSPKVEHLQAIVAHDFGHVAHNILSSEAGMDWGKVQWDSPLIWLYQEGAAIHFSRQIAPQLPPAMYFSFDAEGEEWLRFFKENTHAVKSAFAHDYVQETSQSMFQEWFSINGGKRFGYNRLGYLVGDLLFQHFTKTKGERNAITAWKEGRFREEVERWFKR | not soluble |
| MGSDKIHHHHHHMIIHKFIIHVLDKNSDTPILNDFEGRVSQDMDLFFQKKISKVSRDNDIRTAVFNDYSNNLIKKCCEQIIYDESSFLNSSKEIAAYLFDVMKLNATLESCDLAICLYSQKDEKKVAILKLDYNKSYTHSIEFKDDKFNIQMSKNEINIQETKTIKIGAIIGLSGVNDEYHLKVLDKDAEKEEVNSKFVTEFLNATKVKDDKYRTKMFKTFVDAYIANLYSDMKQGEDVRSILLYMLREKQNLDINEFADKAIKDDLKDSFKDHAEEKGIESFNIDKKWVEKNLKNRHIKTDTGFEVKGKMDDFEDFMKYGIRHNGNGTVDIVIKNVNFYDEK | not soluble |
| MGSDKIHHHHHHMIIQSKLIRAALVCAAKNDVRYYLNGLHITPKHIEATNGSVALRMAHGIRTKKNIIVQFEGGVPAKAETTELIFSKEPIAVHRDQFQRRLSITGIKLVDGCFPDLDRIIPKKFDRCTHPVLQAGYLSYPEKMFGRERKFIPVQLRPSGDGQAVRIQFDSIINSMYGNPEFVVMPCRDHGDFNVAQEHPE | not soluble |
| MGSDKIHHHHHHMIKCIDVNDLKVGMYIHDLNCDWMSHPFLVNRFKVKDESEIRKIADAGIHEVYIDTRKGMDLPSARSEGEVRKQLESELREIASRERTVTRHVEAAEEFGRAQTIHHEANQIIRDILQDVRLGKQVELEQVEPQVEKLTGSILRNGGALLSLCRIKDKDNYTFQHSVSVGALMVSFCNALGMSKEVIHHAGIGGMLHDIGKMKVPDSILNKPGKLTEQEFMVMKCHVVESQKILHATRGISETAVLVAGQHHERHDGSGYPAGLKGEEISQLGQMAAIVDVYDALTSNRCYHKGMPPTDALRKIYEWSKFHFNPELVQAFMRVIGIYPVGTLVRLESGRLGVVVEQNEDNLVSPKVKVFFSTKSNTHIPPEVVDLSRRMGFGGGDRIVKHESPEKWKIDPLRFL | not soluble |
| MGSDKIHHHHHHMIKLIATDIDGTLVKDGSLLIDPEYMSVIDRLIDKGIIFVVCSGRQFSSEFKLFAPIKHKLLYITDGGTVVRTPKEILKTYPMDEDIWKGMCRMVRDELPACDYFAATPDFCFAEDGGSPIFHLLRDSYGFEMREVDDITRLDRNDIIKFTVFHPDKCEELCTPVFIPAWNKKAHLAAAGKEWVDCNAKGVSKWTALSYLIDRFDLLPDEVCCFGDNLNDIEMLQNAGISYAVSNARQEVIAAAKHTCAPYWENGVLSVLKSFL | not soluble |
| MGSDKIHHHHHHMIKVGQTTEVENFLSNHPEVEAIDVLISDLVGFARGKRIEKSSLEKIYSSGLNMPATIFSMNVLGETIEECGLGQDIGEPDMVCKPIANTLHMASWHDRPIAQVLMSMFNHDGTPFFADPRNILSNVVRQLAEINLYPVVAVELEFYLLDKNKDNKGNLQAPISPKTGKRDEHTQVYSVDTLNDYSALLDDINRVCIEQNVPADTAVAECAPGQFEINLKHEADPVAACDNAILLKRIIKTVADKHNFDATFMAKPYSNEAGSGMHVHASLLDECGNNVFADEHNDYNETLEHAIGGMLELMPASMPLLCPNVNSYRRFMPGYYVAMAKNWGVDNRTVALRLPRGHKNATRIEHRVSGADANPYLVMAVILASIHHGITNKIKPINPTVGNAFDDDCEALPLKLDRALAELEKDQILTSYLGEEFTKNYHTVKQKELEQFDMHISELEVKWYLSNS | not soluble |
| MGSDKIHHHHHHMILGIDVGGTSVKFGLVTPEGEIQNATRFMTADWVNGIGFVESMKLEIGNFLKQYPIVKGVGIGWPGLVSLDRTKVILLPNIPSVVNVPIVEILRSEFPHIHFKIENDAKCAALGEYYFGENKRMQTFILLALGTGVGSGVMMNGKLFIGGRGNGTEVGHMLTTRGKSLENQVGINHLIAYTHEQLALDVAKKSSLHTIAELSPKVIADHAAQGDALALAVWADIGTIIGESLVNIVRVMDLNNILLGGGISGAFDYFVPNLKKAMLEHLPTYYTDDMYIGKATLENDAGLLGAAGLIMEAI | not soluble |
| MGSDKIHHHHHHMIMLEKPTCRPNNPNFSSGPCSKRPGWTLEVLKNALVGRSHRSREAALRLAEIVDLTREVLEVPSDYRIGIVPASDTGAVEMSLWSLLGERGVDMAAWESFGSGWITDVVEKLKLSDVRRFEAPYGELPDLTQMDFDRDVVFTWNGTTSGVRIPNADFIPERRAGLTICDATSAAFAQNLDFSKLDVVTFSWQKVLGGEAAHGMLILSPRAVERLESYVPTWPMPQIFCLTKDGKLNENIFKGVTINTPSLLCIEDFLDALKWAKAQGGLHALMARVEKNFAVLDAFVRKTPWLEYLAKDPQVRSNTSVCLDIVDPVVTALDTEKRVSFIKAIVNRLDEEEAAYDIGSYRDAPPGLRIWTGITIEASDLEILTSWLEWAFQVEKAQL | not soluble |
| MGSDKIHHHHHHMINIIICEGKKSERVILNDYINTFFYNYNFEYNIKEFENGGDLLKKYPNNVDIIFMDIDLNDENGFNVSKEIKKFDESVRIIFVSSSNKYIKKGYEIGVYRYLEKPLKYSLFKEAISSYLKECYKNEAILSIKCKCKIYFIKVDDILYLEVLKNDLTIHTEKGIYTFKSSMKEIESNLEEHNFFRCHKSYLINLMKVNMLDIENNIVFINQNSIIVSRYKIKLLREKLNSCLVDVII | not soluble |
